# Laboratory results reported in patent US20210253718A1, “FRIZZLED5 PROTEIN-BINDING AGENTS” (Modmab Therapeutics Corporation, priority 2016, published 2021).
# T1: FZD10 CRD (Homo sapiens, UniProt Q9ULW2)
# T1 construct: 30-156; GPI anchor signal (C); expressed in transfected cells; host or cells: CHO cells, lentiviral pLenti-puro
# T1 sequence (Q9ULW2 30-156): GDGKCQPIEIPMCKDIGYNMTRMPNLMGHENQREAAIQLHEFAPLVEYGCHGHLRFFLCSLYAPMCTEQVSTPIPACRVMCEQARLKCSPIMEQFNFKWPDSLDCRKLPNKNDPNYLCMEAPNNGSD
# T2: FZD4 CRD (Homo sapiens, UniProt Q9ULV1)
# T2 construct: E42-V167; GPI anchor signal (C); expressed in transfected cells; host or cells: CHO cells, lentiviral pLenti-puro
# T2 sequence (Q9ULV1 42-167): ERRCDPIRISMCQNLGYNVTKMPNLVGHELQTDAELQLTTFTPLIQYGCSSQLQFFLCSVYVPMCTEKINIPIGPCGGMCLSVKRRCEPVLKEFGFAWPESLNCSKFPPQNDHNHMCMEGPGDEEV
# Legend:
# FZD1 CRD = target: T3, FZD1 CRD (Homo sapiens, UniProt Q9UP38); experiment: Flow cytometry of anti-FZD5 Fab binding to CHO cells overexpressing Frizzled CRD
# T3 construct: D112-P238; GPI anchor signal (C); expressed in transfected cells; host or cells: CHO cells, lentiviral pLenti-puro
# Description: (§1) Plasmids: pLCKO lentiviral vector used for knockout (TKO) library construction and expression of individual gRNAs was constructed as described previously (Hart et al., 2015). Briefly, single guide RNA (sgRNA) scaffold was amplified from px330 (Addgene 42230) and cloned into pLKO.TRC005 lentiviral vector (Broad Institute, Cambridge, Mass.) using AgeI/EcoRI restriction sites. BfuAI sites were added at the 5′ end of the sgRNA scaffold for cloning the TKO library or individual gRNA target sequences. Lenti Cas9-2A-BsdR vector used to generate Cas9 stable expression cell lines was constructed as described previously (Hart et al., 2015). Briefly, lentiCRISPR pXPR_001 (Addgene 49535) was modified through removal of the sgRNA scaffold region through NdeI/EcoRI digest and blunt ends generation using Large Klenow Fragment (NEB). 2A-puro was replaced with 2A-BsdR by PCR using the NheI/MluI sites. Each of the 10 human Frizzled cysteine rich domains (CRDs) were cloned into the lentiviral expression plasmid pLenti-puro in the following cassette: FZD_CRD-MYC-GPI.
# (§2) Flow cytometry: Primary staining of cells was performed by treatment with 200 nM Frizzled profiler Fab. Alexa Fluor 488 AffiniPure F(ab′)2 was used as the secondary antibody (Jackson ImmunoResearch #109-546-097). c-Myc (9E10) IgG1 (primary antibody, Santa Cruz, lot #D0306) and Alexa Fluor 488 IgG (secondary antibody, Life technologies, lot #1458649) were used as controls. Dead cells were excluded by staining with Fixable Viability Dye eFluor 660 (eBioscience, catalogue number 65-0864). All reagents were used as per manufacturer's instructions. Flow cytometry was performed on a BD FACSCanto II flow cytometer (BD Biosciences), and data were analyzed with FlowJo software (FlowJo, LLC).
# (§3) To confirm that the FZD5-WNT7B circuit is not driven simply by expression and rule out the possibility of a disconnect between RNA and protein levels for the Wnt receptors in HPAF-II cells, a panel of recombinant Fabs were generated, alternatively referred to herein as ‘Frizzled profiler’, that can detect and discriminate all but one of the ten Frizzled receptors. […] To characterize the binding specificity of these Fabs on cells, a panel of 10 CHO cell lines was generated, each expressing the CRD domain of a different myc-tagged Frizzled family member anchored at the plasma membrane through a GPI anchor (CHO-myc-FZDGPI). Despite the high sequence identity between Frizzled family members (FIG. 7A, FIG. 7B), selective Fabs were identified for FZD4, FZD5, FZD6 and FZD10 as assessed by immunofluorescence and flow cytometry (FIG. 7D and FIG. 8). […] The FZD8 CRD is most homologous to that of FZD5 (FIG. 7B). These Fabs can be used to discriminate expression of FZD1, FZD2, FZD4, FZD5, FZD6, FZD7, FZD8, FZD9 and FZD10 (FIG. 7D and FIG. 8). The ‘Frizzled profiler’ therefore consists of 10 different Fabs that can be used to discriminate expression of 9 different Frizzled family members. The Frizzled profiler was then used to confirm that HPAF-II cells express FZD1, FZD5, FZD6 and possibly FZD8 (FIG. 7E).
# (§4) The binding of anti-FZD5 Fabs to cell surface-expressed Frizzled protein was further determined for each member of the Frizzled family via flow cytometry and immunofluorescence analysis of a panel of 10 CHO cell lines, each ectopically over-expressing the extracellular cysteine-rich domain (CRD) of a different Frizzled protein family member.
# FZD10 CRD = target: T1, FZD10 CRD; experiment: Immunofluorescence of anti-FZD5 Fab binding to CHO cells overexpressing Frizzled CRD; parameters: key: −: no binding; +: very weak binder; ++: weak binder; +++: good binder; ++++: very good binder
# Summary of the method: (§5)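 CHO cell lines each displaying a myc-tagged Frizzled CRD on the plasma membrane via GPI anchor. Recombinant anti-FZD5 Fab binding detected by immunofluorescence and flow cytometry.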
# FZD2 CRD [1] = target: T4, FZD2 CRD (Homo sapiens, UniProt Q14332); experiment: as above; parameters: key: −: no binding; +: very weak binder; ++: weak binder; +++: good binder; ++++: very good binder
# T4 construct: D35-P161; GPI anchor signal (C); expressed in transfected cells; host or cells: CHO cells, lentiviral pLenti-puro
# Summary of the method: as §5
# FZD4 CRD = target: T2, FZD4 CRD; experiment: as above; parameters: key: −: no binding; +: very weak binder; ++: weak binder; +++: good binder; ++++: very good binder
# Summary of the method: as §5
# ASPC-1 cells [2] = experiment: Effect of anti-FZD5 Fabs on proliferation of pancreatic cancer cell lines (percent growth inhibition); type: cell-based, human; conditions: Fab 10 μg/ml
# Description: (§6) The effect of presently disclosed anti-FZD5 Fabs on proliferation of RNF43 loss-of-function mutant pancreatic cancer cell lines HPAFII, PATU8988S and ASPC-1; and on pancreatic cancer cell line RWP1, was tested at […] and 10 μg/ml.
# HPAFII cells = experiment: as above; type: cell-based, human; conditions: for percent growth inhibition, HPAFII 2 μg/ml: Fab 2 μg/ml; for percent growth inhibition, HPAFII 10 μg/ml: Fab 10 μg/ml
# Description: as §6
# PATU8988S cells [3] = experiment: as above; type: cell-based, human; conditions: Fab 10 μg/ml
# Description: as §6
# RWP1 cells [4] = experiment: as above; type: cell-based, human; conditions: Fab 10 μg/ml
# Description: as §6
# [5] = tested on: CHO cells not expressing Frizzled CRD; experiment: Flow cytometry of anti-FZD5 Fab binding to CHO cells not expressing Frizzled CRD (background)
# Description: as §4
# PATU8988S cells [6] = experiment: Effect of anti-FZD5 Fabs on proliferation of pancreatic cancer cell lines (percent growth inhibition); type: cell-based, human; conditions: Fab 2 μg/ml
# ASPC-1 cells [7] = experiment: as above; type: cell-based, human; conditions: Fab 2 μg/ml
# RWP1 cells [8] = experiment: as above; type: cell-based, human; conditions: Fab 2 μg/ml
# FZD2 CRD [9] = target: T4, FZD2 CRD; experiment: Flow cytometry of anti-FZD5 Fab binding to CHO cells overexpressing Frizzled CRD
# Description: as §1, §2, §3, §4
"Median fluorescence, Frizzled CRD overexpressed on CHO cells: FZD1 (FZD1 CRD)","Immunofluorescence binding, Frizzled CRD overexpressed on CHO cells: FZD10 (FZD10 CRD)","Immunofluorescence binding, Frizzled CRD overexpressed on CHO cells: FZD2 (FZD2 CRD [1])","Immunofluorescence binding, Frizzled CRD overexpressed on CHO cells: FZD4 (FZD4 CRD)","Median fluorescence, Frizzled CRD overexpressed on CHO cells: FZD2 (FZD2 CRD [9])",Molecule,"percent growth inhibition, ASPC-1 10 μg/ml (ASPC-1 cells [2])","percent growth inhibition, HPAFII 2 μg/ml (HPAFII cells)","percent growth inhibition, HPAFII 10 μg/ml (HPAFII cells)","percent growth inhibition, PATU8988s 10 μg/ml (PATU8988S cells [3])","percent growth inhibition, RWP1 10 μg/ml (RWP1 cells [4])","Median fluorescence, Frizzled CRD overexpressed on CHO cells: None [5]","percent growth inhibition, PATU8988s 2 μg/ml (PATU8988S cells [6])","percent growth inhibition, ASPC-1 2 μg/ml (ASPC-1 cells [7])","percent growth inhibition, RWP1 2 μg/ml (RWP1 cells [8])"
6.67,−,−,−,,"Fab-2910: anti-FZD5 Fab with antibody variable region Fv-2910; CDR SEQ ID NOs: 35, 36, 49, 88, 125, 162 (antibody, V domains shown) VH: EVQLVESGGGLVQPGGSLRLSCAASGFNISYSYMHWVRQAPGKGLEWVASIYSSSSSTSYADSVKGRFTISADTSKNTAYLQMNSLRAEDTAVYYCARGAMDYWGQGTLVTVSS VL: DIQMTQSPSSLSASVGDRVTITCRASQSVSSAVAWYQQKPGKAPKLLIYSASSLYSGVPSRFSGSRSGTDFTLTISSLQPEDFATYYCQQWYGSHLITFGQGTKVEIK",41.71%,26.86%,41.81%,−12.84%,54.51%,2.92,8.48%,39.05%,71.49%
11.97,−,−,−,,"Fab-2918: anti-FZD5 Fab with antibody variable region Fv-2918; CDR SEQ ID NOs: 35, 36, 57, 96, 133, 169 (antibody, V domains shown) VH: EVQLVESGGGLVQPGGSLRLSCAASGFNLSYSSIHWVRQAPGKGLEWVASIYSSYSSTSYADSVKGRFTISADTSKNTAYLQMNSLRAEDTAVYYCARFGYWAIDYWGQGTLVTVSS VL: DIQMTQSPSSLSASVGDRVTITCRASQSVSSAVAWYQQKPGKAPKLLIYSASSLYSGVPSRFSGSRSGTDFTLTISSLQPEDFATYYCQQAFGASLFTFGQGTKVEIK",45.56%,37.15%,44.60%,−1.92%,39.24%,3.13,−0.86%,44.67%,3.49%
,−,−,−,6.61,"Fab-2934: anti-FZD5 Fab with antibody variable region Fv-2934; CDR SEQ ID NOs: 35, 36, 73, 110, 149, 155 (antibody, V domains shown) VH: EVQLVESGGGLVQPGGSLRLSCAASGFNISYSYMHWVRQAPGKGLEWVASIYSSSGSTSYADSVKGRFTISADTSKNTAYLQMNSLRAEDTAVYYCARGAIDYWGQGTLVTVSS VL: DIQMTQSPSSLSASVGDRVTITCRASQSVSSAVAWYQQKPGKAPKLLIYSASSLYSGVPSRFSGSRSGTDFTLTISSLQPEDFATYYCQQWYHYGLITFGQGTKVEIK",36.76%,3.40%,20.44%,1.78%,0.90%,3.13,−9.14%,26.80%,7.90%
,−,−,+++,9.82,"Fab-2933: anti-FZD5 Fab with antibody variable region Fv-2933; CDR SEQ ID NOs: 35, 36, 72, 109, 148, 177 (antibody, V domains shown) VH: EVQLVESGGGLVQPGGSLRLSCAASGFNLYSSYMHWVRQAPGKGLEWVASIYSSYGYTSYADSVKGRFTISADTSKNTAYLQMNSLRAEDTAVYYCARTVRGSKKPYFSGWAMDYWGQGTLVTVSS VL: DIQMTQSPSSLSASVGDRVTITCRASQSVSSAVAWYQQKPGKAPKLLIYSASSLYSGVPSRFSGSRSGTDFTLTISSLQPEDFATYYCQQFWWYASWLFTFGQGTKVEIK",19.44%,−14.19%,−6.12%,−17.17%,27.16%,3.92,6.02%,−1.03%,−21.16%
